± gives the standard error. Fewer inactive variants are shown than the library holds.

The labels stand for the following.
B1: glmS ribozyme (parent)
chain: AUAAAAGCGCCAGAACUACAGAAAUGUAGUUGACGAGGAGGAGGUUUAUCGAAUUUUCGGCGGAUGCCUCCAAA

Holding throughout (conditions): with glucosamine-6-phosphate
In series [1] the parent is B1. Kind of series: self-cleavage kobs at 40 uM GlcN6P; higher = faster cleavage; RNA array. An outline of the steps: (§1)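 Weighted Michaelis–Menten fits across concentrations supplied kcat and KM, based on kobs from one- or two-exponential decay fits to normalised per-tile medians. The data came from barcoded ribozyme variants transcribed in situ by E. coli RNA polymerase on sequenced MiSeq chips and tracked at 37 °C by a hybridised Cy3 probe. Glucosamine-6-phosphate (40 μM to 10 mM) in HEPES/KCl/Mg(OAc)2 buffer was flowed in.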

Variants of B1 are the subject of series [2]. Kind of series: self-cleavage kobs at 10000 uM GlcN6P; higher = faster cleavage; RNA array. The essentials: as §1
In series [3] the parent is B1. Kind of series: self-cleavage kobs at 160 uM GlcN6P; higher = faster cleavage; RNA array. An outline of the steps: as §1
Series [4] covers variants of B1. Kind of series: self-cleavage kobs at 640 uM GlcN6P; higher = faster cleavage; RNA array. The essentials: as §1
The variants in series [5] derive from B1. As to the kind of experiment: self-cleavage kobs at 2500 uM GlcN6P; higher = faster cleavage; RNA array. An outline of the steps: as §1

Turning to AUAAAAUCGGCUGAACUACAGAAAUGUAGUUGACGAGGAGGAGGUUUAUCGAAUUUUCGGCGGAGGCGUCCAAA [G7U C10G A12U U65G C68G], the “self-cleavage kobs at 40 uM GlcN6P” value in series [1] turned out to be 7.58e-05 ± 2.2e-05 s⁻¹. Further, in series [2], the “self-cleavage kobs at 10000 uM GlcN6P” value is 5.57e-05 ± 1.5e-05 s⁻¹.
With AUAAAAGCGCCAGCACUACAGAAAUGUAGUUGACGAGGAGGAGGUUUAUCGAAUUUUCGGCGGUUGCCUCCAAA [A14C A64U], the “self-cleavage kobs at 40 uM GlcN6P” value in series [1] is less than 1e-05 s⁻¹. The “self-cleavage kobs at 160 uM GlcN6P” value in series [3] was less than 1e-05 s⁻¹. In addition, the “self-cleavage kobs at 640 uM GlcN6P” value in series [4] was less than 1e-05 s⁻¹.
AUAAAAGCGCCAGAACUACAGAAAUGUAGUUUACGAGGAGGAGGUUUAUCGAAUUAUCGGGGGAUGACUCCAAA [G32U U56A C61G C67A]: in series [1], the “self-cleavage kobs at 40 uM GlcN6P” value turned out to be 7.99e-05 ± 3e-05 s⁻¹.
As to AUAAAAGCACCAGAACUACAGAAAUGUAGUUGAGGAGGAGGAGGUUUAUCGAAUUUUCGGCGGAUGCCUCCAAA [G9A C34G], in series [1], the “self-cleavage kobs at 40 uM GlcN6P” value was less than 1e-05 s⁻¹. Besides, in series [3], the “self-cleavage kobs at 160 uM GlcN6P” value was less than 1e-05 s⁻¹. Moreover, the “self-cleavage kobs at 2500 uM GlcN6P” value in series [5] was less than 1e-05 s⁻¹. Moreover, the “self-cleavage kobs at 10000 uM GlcN6P” value in series [2] was less than 1e-05 s⁻¹.
As for AUAAAAGCGCCAGAACUACAGAAAUGUAGUUGACGAGGAGGAGGUUUAUCGAAUUGUCGGCGUAUGCCUCCAAA [U56G G63U], the “self-cleavage kobs at 40 uM GlcN6P” value in series [1] was less than 1e-05 s⁻¹. Besides, in series [3], the “self-cleavage kobs at 160 uM GlcN6P” value is less than 1e-05 s⁻¹. For the same variant, in series [4], the “self-cleavage kobs at 640 uM GlcN6P” value was less than 1e-05 s⁻¹. Moreover, in series [2], the “self-cleavage kobs at 10000 uM GlcN6P” value was less than 1e-05 s⁻¹.
AUAAAAGCGACAGCACUACAGAAAUGUAGUUGACGAGGAGGCGGUUUAUCGAAUUUUCGGCGAAUGCCUCCAAA [C10A A14C A42C G63A]: the “self-cleavage kobs at 40 uM GlcN6P” value in series [1] was less than 1e-05 s⁻¹. The “self-cleavage kobs at 160 uM GlcN6P” value in series [3] was less than 1e-05 s⁻¹. In addition, in series [2], the “self-cleavage kobs at 10000 uM GlcN6P” value is less than 1e-05 s⁻¹.
As for AUAAAAGCACCAGAACUACAGAAAUGUAGUUGACGAGGAGGAGGUUUAUCGAAUUUUGGGCGGACGCCUCCAAA [G9A C58G U65C], the “self-cleavage kobs at 40 uM GlcN6P” value in series [1] was less than 1e-05 s⁻¹. Moreover, the “self-cleavage kobs at 640 uM GlcN6P” value in series [4] was less than 1e-05 s⁻¹. Further, in series [5], the “self-cleavage kobs at 2500 uM GlcN6P” value was less than 1e-05 s⁻¹.
As to AUAAAAGCGCCAGAACUACAGAAAUGUAGUUGGCGAGGAGGAGGUUUAUCGAAUUUUCGGCGGACGCCUCAAAA [A33G U65C C71A], the “self-cleavage kobs at 40 uM GlcN6P” value in series [1] was less than 1e-05 s⁻¹. In addition, in series [4], the “self-cleavage kobs at 640 uM GlcN6P” value is less than 1e-05 s⁻¹.
For AUAAAAGCGCCAGAACUACAGAAAUGUAGUUGACGAGGAGGAGGUUAAUCCAAUUUUCGGCGGAUGCCUCCAAA [U47A G51C], in series [1], the “self-cleavage kobs at 40 uM GlcN6P” value was less than 1e-05 s⁻¹. In addition, in series [3], the “self-cleavage kobs at 160 uM GlcN6P” value was less than 1e-05 s⁻¹. In addition, in series [5], the “self-cleavage kobs at 2500 uM GlcN6P” value is less than 1e-05 s⁻¹. The “self-cleavage kobs at 10000 uM GlcN6P” value in series [2] is less than 1e-05 s⁻¹.
With AUAAAAGCGCCAGAACUACAGAAAUGUAGAUGACGAGGAGGAGGUUUAUCGAAUAUUCGGAGGAUGCCUCCAAA [U30A U55A C61A], the “self-cleavage kobs at 40 uM GlcN6P” value in series [1] was less than 1e-05 s⁻¹. Further, the “self-cleavage kobs at 2500 uM GlcN6P” value in series [5] was less than 1e-05 s⁻¹.
Consider AUAAAAGCGCCAGAACUACAGAAAUGUAGUUGACGAGGAGGAGGUUUAUCCAAUGUUCGGCGGAUGCCUCCAAA [G51C U55G], for which, in series [1], the “self-cleavage kobs at 40 uM GlcN6P” value was less than 1e-05 s⁻¹. Also, the “self-cleavage kobs at 160 uM GlcN6P” value in series [3] was less than 1e-05 s⁻¹. Besides, the “self-cleavage kobs at 640 uM GlcN6P” value in series [4] is less than 1e-05 s⁻¹. In addition, the “self-cleavage kobs at 2500 uM GlcN6P” value in series [5] is less than 1e-05 s⁻¹. Also, the “self-cleavage kobs at 10000 uM GlcN6P” value in series [2] was less than 1e-05 s⁻¹.
On to AUAAAAGCGCCAGAACUACAGAAAUGUAGUUGACGUGGAGGAGGUUUAUCGAAUGUUCGGCGAAUGCCUCAAAA [A36U U55G G63A C71A], for which, in series [1], the “self-cleavage kobs at 40 uM GlcN6P” value was less than 1e-05 s⁻¹.
For the variant AUAAAAGCGCCAGAACUACAGAAAUGUAGUUGACGAGGAGGAGGUCUAUCGAAUUUUCGGCGGUUGCCUCCAAA [U46C A64U], in series [1], the “self-cleavage kobs at 40 uM GlcN6P” value is less than 1e-05 s⁻¹. The “self-cleavage kobs at 10000 uM GlcN6P” value in series [2] stood at 4.69e-05 ± 1.5e-05 s⁻¹.

(Values after the supplement of paper PMC7125110.)
